From patent US20120308522A1

How the values were obtained:
[1] = target: high-affinity receptors for VEGF in HUVECs; test: cell-based or functional assay
[2] = target: Flt-1 VEGF receptor (human (on HUVEC)) (UniProt P17948); test: cell-based or functional assay
UniProt P17948, sequence (P17948 27-1338): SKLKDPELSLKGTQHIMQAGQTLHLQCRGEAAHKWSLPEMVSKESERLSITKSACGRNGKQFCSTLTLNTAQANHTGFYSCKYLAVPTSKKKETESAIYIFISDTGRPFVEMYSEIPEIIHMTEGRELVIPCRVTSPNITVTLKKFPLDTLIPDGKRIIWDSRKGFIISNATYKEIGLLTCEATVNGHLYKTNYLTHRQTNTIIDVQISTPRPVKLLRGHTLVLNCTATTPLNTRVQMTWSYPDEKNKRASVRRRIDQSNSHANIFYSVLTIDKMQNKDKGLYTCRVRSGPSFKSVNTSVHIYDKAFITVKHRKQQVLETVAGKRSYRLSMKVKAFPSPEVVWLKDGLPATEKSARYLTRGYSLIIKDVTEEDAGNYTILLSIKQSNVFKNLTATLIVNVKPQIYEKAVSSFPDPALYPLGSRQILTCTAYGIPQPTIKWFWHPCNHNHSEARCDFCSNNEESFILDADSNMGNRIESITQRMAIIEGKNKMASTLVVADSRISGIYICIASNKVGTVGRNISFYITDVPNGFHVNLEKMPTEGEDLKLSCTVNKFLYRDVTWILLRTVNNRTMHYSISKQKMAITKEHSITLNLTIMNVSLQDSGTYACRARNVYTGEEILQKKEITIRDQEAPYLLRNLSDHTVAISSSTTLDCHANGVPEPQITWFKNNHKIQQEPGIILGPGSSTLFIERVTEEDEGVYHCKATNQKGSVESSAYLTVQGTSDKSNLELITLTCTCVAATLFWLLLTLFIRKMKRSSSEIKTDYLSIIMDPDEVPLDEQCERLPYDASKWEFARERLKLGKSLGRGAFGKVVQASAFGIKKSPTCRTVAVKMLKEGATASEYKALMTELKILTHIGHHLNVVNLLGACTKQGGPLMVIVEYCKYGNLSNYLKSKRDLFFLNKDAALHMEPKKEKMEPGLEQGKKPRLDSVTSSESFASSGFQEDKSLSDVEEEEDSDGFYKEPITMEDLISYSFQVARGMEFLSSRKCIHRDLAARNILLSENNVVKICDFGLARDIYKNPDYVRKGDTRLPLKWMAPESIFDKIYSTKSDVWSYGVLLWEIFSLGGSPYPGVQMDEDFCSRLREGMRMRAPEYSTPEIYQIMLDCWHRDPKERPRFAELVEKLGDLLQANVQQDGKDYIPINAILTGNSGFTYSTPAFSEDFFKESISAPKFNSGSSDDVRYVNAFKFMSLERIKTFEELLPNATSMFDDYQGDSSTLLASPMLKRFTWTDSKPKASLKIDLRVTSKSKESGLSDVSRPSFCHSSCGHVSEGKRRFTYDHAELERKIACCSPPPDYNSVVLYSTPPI

Row | arachidonic acid release from prelabelled HUVEC, concentration of maximum effect [1] | arachidonic acid release from prelabelled HUVEC, half-maximum effect [1] | mean increase in release of labelled arachidonic acid above basal level [1] | mean fold increase in 6-keto PGF1a above control, 60 min with 60 ng/ml P1GF [2] | Molecule
1 | 10 to 20 ng/mL | 2.5 to 5 ng/mL | 1.6 fold |  | recombinant human VEGF (vascular endothelial growth factor) (from UniProt P15692 27-191) (ligand)
2 |  |  |  | 1.3 fold | recombinant placenta growth factor (P1GF) (ligand, UniProt P49763-2 21-149, looked up) AVPPQQWALSAGNGSSEVEVVPFQEVWGRSYCRALERLVDVVSEYPSEVEHMFSPSCVSLLRCTGCCGDENLHCVPVETANVTMQLLKIRSGDRPSYVELTFSQHVRCECRPLREKMKPERCGDAVPRR
